Experimental data reported in patent US20140349310A1.

Molecular target: human c-Met on the surface of human tumor cells (human) (UniProt P08581)
Assay: FACS on tumor cells (cell line not named on the sheet), PE-labelled isotype control, FL2 Log; unstained cells 3.48

Chain of human c-Met on the surface of human tumor cells (human) (P08581 25-1390): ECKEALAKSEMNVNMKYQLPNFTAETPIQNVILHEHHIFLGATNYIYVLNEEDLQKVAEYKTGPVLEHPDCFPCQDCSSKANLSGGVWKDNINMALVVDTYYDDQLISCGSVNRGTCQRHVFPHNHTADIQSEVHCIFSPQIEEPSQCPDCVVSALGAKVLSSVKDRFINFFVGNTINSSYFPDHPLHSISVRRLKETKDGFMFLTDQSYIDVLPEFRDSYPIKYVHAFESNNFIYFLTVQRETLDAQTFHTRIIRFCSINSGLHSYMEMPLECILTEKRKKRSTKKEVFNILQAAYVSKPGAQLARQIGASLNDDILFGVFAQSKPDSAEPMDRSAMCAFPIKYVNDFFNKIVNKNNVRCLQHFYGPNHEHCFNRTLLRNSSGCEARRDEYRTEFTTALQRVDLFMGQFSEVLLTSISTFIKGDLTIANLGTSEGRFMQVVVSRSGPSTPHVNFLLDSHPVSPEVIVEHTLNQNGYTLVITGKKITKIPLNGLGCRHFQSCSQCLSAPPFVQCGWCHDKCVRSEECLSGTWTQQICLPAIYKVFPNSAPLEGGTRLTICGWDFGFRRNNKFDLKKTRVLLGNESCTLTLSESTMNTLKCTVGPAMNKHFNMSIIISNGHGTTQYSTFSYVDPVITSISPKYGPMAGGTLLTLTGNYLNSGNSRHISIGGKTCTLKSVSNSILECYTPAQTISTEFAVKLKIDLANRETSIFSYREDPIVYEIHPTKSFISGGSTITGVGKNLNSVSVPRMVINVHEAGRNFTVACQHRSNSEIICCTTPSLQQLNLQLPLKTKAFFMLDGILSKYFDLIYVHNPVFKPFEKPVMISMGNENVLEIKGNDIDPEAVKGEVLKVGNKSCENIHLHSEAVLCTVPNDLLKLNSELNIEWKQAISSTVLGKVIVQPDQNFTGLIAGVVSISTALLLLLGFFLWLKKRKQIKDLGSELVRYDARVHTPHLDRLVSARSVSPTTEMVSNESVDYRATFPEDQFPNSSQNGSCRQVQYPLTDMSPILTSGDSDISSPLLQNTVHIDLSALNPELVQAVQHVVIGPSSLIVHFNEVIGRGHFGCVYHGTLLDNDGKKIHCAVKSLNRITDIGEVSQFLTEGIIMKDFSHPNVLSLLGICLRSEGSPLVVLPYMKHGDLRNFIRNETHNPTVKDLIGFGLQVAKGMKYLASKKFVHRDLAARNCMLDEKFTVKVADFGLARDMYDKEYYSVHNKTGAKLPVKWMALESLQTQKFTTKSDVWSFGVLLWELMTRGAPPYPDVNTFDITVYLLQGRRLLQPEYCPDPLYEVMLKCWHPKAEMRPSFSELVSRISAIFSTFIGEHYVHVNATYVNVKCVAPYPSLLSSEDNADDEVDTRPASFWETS

Substance: mIgG1-PE (antibody)
- Mean fluorescence: 6.47
